In patent publication US20250346668A1 (GENOR BIOPHARMA, published 2025):

molecular target: T1, human CD3e/g antigen (ACRO, catalog number CDG-H52W5) (human, UniProt P07766 23-126; P09693 23-116); experiment: SPR (Biacore 8K), antibody captured via anti-human Fc
T1 construct: Bought reagent used as the Biacore analyte; also called hCD3e/g
Experimental: The equilibrium dissociation constant of binding of CD3 antibodies to human CD3e/g antigen (purchased from ACRO, catalog number CDG-H52W5) was determined by kinetic binding method using Biacore 8K (GE) system. Through the capture method, the carboxylated dextran surface of CM5 chip was first activated with NHS (N-hydroxysuccinimide) and EDC (1-(3-dimethylaminopropyl)-3-ethylcarbodiimide hydrochloride), and then added with an anti-human IgG (Fc) antibody, the free amino group of which could form an amide bond with the activated carboxyl group, thereby being fixed on the chip surface. The anti-human IgG (Fc) antibody could bind to the Fc end of CD3 antibodies to capture the antibodies, and then a series of concentrations of antigen were added to obtain the binding and dissociation curves of antibody and antigen, and the corresponding kinetic constants were calculated by Biacore Evaluation software, as shown in the table below.

| Binder | Kd [nM] | koff [s⁻¹] | kon [M⁻¹ s⁻¹] |
| --- | --- | --- | --- |
| hAb008-25 (antibody, V domains shown, Humanized; constant regions not specified) VH: QVQLVQSGAEVKKPGASVKVSCKASGYTFTDYTVNWVRQAPGQRLEWIGYINPFNSYTKYNQKFKDRATITADTSASTAYMELSSLRSEDTAVYFCANSVSTYWGQGTTVTVSS VL: DVVMTQSPLSLPVTLGQPASISCKSSQSLLDSDGKTYLNWFQQRPGQSPRRLIQLVSKLNSGVPDRFSGSGSGTDFTLKISRVEAEDVGVFYCWQGTHFPRTFGGGTKLEIK | 36.8 | 0.00741 | 202000 |
| hAb008-27 (antibody, V domains shown, Humanized; constant regions not specified) VH: QVQLVQSGAEVKKPGASVKVSCKASGYTFTDYTVNWVRQAPGQRLEWIGYINPFNSYTKYNQKFKDRATITADTSASTAYMELSSLRSEDTAVYFCANSVSTYWGQGTTVTVSS VL: DVVMTQSPLSLPVTLGQPASISCKSSQSLLDSDGKTYLNWLLQRPGQSPRRLIQLVSKLNSGVPDRFSGSGSGTDFTLKISRVEAEDVGVFYCWQGTHFPRTFGGGTKLEIK | 18 | 0.00475 | 264000 |
| hAb008-28 (antibody, V domains shown, Humanized; constant regions not specified) VH: QVQLVQSGAEVKKPGASVKVSCKASGYTFTDYTVNWVKQAPGQRLEWIGYINPFNSYTKYNQKFKDRATITADTSASTAYMELSSLRSEDTAVYFCANSVSTYWGQGTTVTVSS VL: DVVMTQSPLSLPVTLGQPASISCKSSQSLLDSDGKTYLNWFQQRPGQSPRRLIYLVSKLNSGVPDRFSGSGSGTDFTLKISRVEAEDVGVYYCWQGTHFPRTFGGGTKLEIK | 27.2 | 0.00441 | 162000 |
| hAb008-29 (antibody, V domains shown, Humanized; constant regions not specified) VH: QVQLVQSGAEVKKPGASVKVSCKASGYTFTDYTVNWVKQAPGQRLEWIGYINPFNSYTKYNQKFKDRATITADTSASTAYMELSSLRSEDTAVYFCANSVSTYWGQGTTVTVSS VL: DVVMTQSPLSLPVTLGQPASISCKSSQSLLDSDGKTYLNWFQQRPGQSPRRLIQLVSKLNSGVPDRFSGSGSGTDFTLKISRVEAEDVGVFYCWQGTHFPRTFGGGTKLEIK | 20.8 | 0.00378 | 182000 |
| hAb008-30 (antibody, V domains shown, Humanized; constant regions not specified) VH: QVQLVQSGAEVKKPGASVKVSCKASGYTFTDYTVNWVKQAPGQRLEWIGYINPFNSYTKYNQKFKDRATITADTSASTAYMELSSLRSEDTAVYFCANSVSTYWGQGTTVTVSS VL: DVVMTQSPLSLPVTLGQPASISCKSSQSLLDSDGKTYLNWLQQRPGQSPRRLIQLVSKLNSGVPDRFSGSGSGTDFTLKISRVEAEDVGVFYCWQGTHFPRTFGGGTKLEIK | 20.4 | 0.00522 | 256000 |
| hAb008-31 (antibody, V domains shown, Humanized; constant regions not specified) VH: QVQLVQSGAEVKKPGASVKVSCKASGYTFTDYTVNWVKQAPGQRLEWIGYINPFNSYTKYNQKFKDRATITADTSASTAYMELSSLRSEDTAVYFCANSVSTYWGQGTTVTVSS VL: DVVMTQSPLSLPVTLGQPASISCKSSQSLLDSDGKTYLNWLLQRPGQSPRRLIQLVSKLNSGVPDRFSGSGSGTDFTLKISRVEAEDVGVFYCWQGTHFPRTFGGGTKLEIK | 15.1 | 0.00381 | 252000 |
| hAb007-21 (antibody, V domains shown, Humanized; constant regions not specified) VH: QVQLVQSGAEVKKPGASVKVSCKASGSTFTDNYIHWVRQAPGQRLEWIGWIYPGSVNIKYNEKFKDRVTITADTSASTAYMELSSLRSEDTAVYYCARDISRYYFDYWGQGTTVTVSS VL: DIVMTQSPDSLAVSLGERATINCKSSQSLLNSRTRKNYLAWYQQKPGQPPKLLIYWASTRESGVPDRFSGSGSGTDFTLTISSLQAEDVAVYYCKQSFILRTFGGGTKLEIK | 8.06 | 0.00377 | 468000 |
| hAb007-17 (antibody, V domains shown, Humanized; constant regions not specified) VH: QVQLVQSGAEVKKPGASVKVSCKASGSTFTDNYIHWVRQAPGQRLEWMGWIYPGSVNIKYNEKFKDRVTITRDTSASTAYMELSSLRSEDTAVYYCARDISRYYFDYWGQGTTVTVSS VL: DIVMTQSPDSLAVSLGERATINCKSSQSLLNSRTRKNYLAWYQQKPGQPPKLLIYWASTRESGVPDRFSGSGSGTDFTLTISSLQAEDVAVYYCKQSFILRTFGGGTKLEIK | 5.85 | 0.00225 | 385000 |
| hAb007-18 (antibody, V domains shown, Humanized; constant regions not specified) VH: QVQLVQSGAEVKKPGASVKVSCKASGSTFTDNYIHWVRQAPGQRLEWMGWIYPGSVNIKYNEKFKDRVTITRDTSASTAYMELSSLRSEDTAVYYCARDISRYYFDYWGQGTTVTVSS VL: DIVMTQSPDSLAVSLGERATINCKSSQSLLNSRTRKNYLAWYQQKPGQPPKLLIYWASTRESGVPDRFTGSGSGTDFTLTISSLQAEDVAVYYCKQSFILRTFGGGTKLEIK | 6.01 | 0.00241 | 401000 |
| hAb007-19 (antibody, V domains shown, Humanized; constant regions not specified) VH: QVQLVQSGAEVKKPGASVKVSCKASGSTFTDNYIHWVRQAPGQRLEWMGWIYPGSVNIKYNEKFKDRVTITRDTSASTAYMELSSLRSEDTAVYYCARDISRYYFDYWGQGTTVTVSS VL: DIVMTQSPDSLAVSLGERATMNCKSSQSLLNSRTRKNYLAWYQQKPGQPPKLLIYWASTRESGVPDRFSGSGSGTDFTLTISSLQAEDVAVYYCKQSFILRTFGGGTKLEIK | 9.32 | 0.00317 | 340000 |
| hAb007-20 (antibody, V domains shown, Humanized; constant regions not specified) VH: QVQLVQSGAEVKKPGASVKVSCKASGSTFTDNYIHWVRQAPGQRLEWMGWIYPGSVNIKYNEKFKDRVTITRDTSASTAYMELSSLRSEDTAVYYCARDISRYYFDYWGQGTTVTVSS VL: DIVMTQSPDSLAVSLGERATMNCKSSQSLLNSRTRKNYLAWYQQKPGQPPKLLIYWASTRESGVPDRFTGSGSGTDFTLTISSLQAEDVAVYYCKQSFILRTFGGGTKLEIK | 11.1 | 0.00375 | 337000 |
| hAb007-22 (antibody, V domains shown, Humanized; constant regions not specified) VH: QVQLVQSGAEVKKPGASVKVSCKASGSTFTDNYIHWVRQAPGQRLEWIGWIYPGSVNIKYNEKFKDRVTITADTSASTAYMELSSLRSEDTAVYYCARDISRYYFDYWGQGTTVTVSS VL: DIVMTQSPDSLAVSLGERATINCKSSQSLLNSRTRKNYLAWYQQKPGQPPKLLIYWASTRESGVPDRFTGSGSGTDFTLTISSLQAEDVAVYYCKQSFILRTFGGGTKLEIK | 13.3 | 0.00594 | 446000 |
| hAb007-23 (antibody, V domains shown, Humanized; constant regions not specified) VH: QVQLVQSGAEVKKPGASVKVSCKASGSTFTDNYIHWVRQAPGQRLEWIGWIYPGSVNIKYNEKFKDRVTITADTSASTAYMELSSLRSEDTAVYYCARDISRYYFDYWGQGTTVTVSS VL: DIVMTQSPDSLAVSLGERATMNCKSSQSLLNSRTRKNYLAWYQQKPGQPPKLLIYWASTRESGVPDRFSGSGSGTDFTLTISSLQAEDVAVYYCKQSFILRTFGGGTKLEIK | 6.59 | 0.0029 | 439000 |
| hAb007-24 (antibody, V domains shown, Humanized; constant regions not specified) VH: QVQLVQSGAEVKKPGASVKVSCKASGSTFTDNYIHWVRQAPGQRLEWIGWIYPGSVNIKYNEKFKDRVTITADTSASTAYMELSSLRSEDTAVYYCARDISRYYFDYWGQGTTVTVSS VL: DIVMTQSPDSLAVSLGERATMNCKSSQSLLNSRTRKNYLAWYQQKPGQPPKLLIYWASTRESGVPDRFTGSGSGTDFTLTISSLQAEDVAVYYCKQSFILRTFGGGTKLEIK | 6.16 | 0.00258 | 419000 |
| hAb007-25 (antibody, V domains shown, Humanized; constant regions not specified) VH: QVQLVQSGAEVKKPGASVKVSCKASGSTFTDNYIHWVRQAPGQRLEWIGWIYPGSVNIKYNEKFKDRATITADTSASTAYMELSSLRSEDTAVYYCARDISRYYFDYWGQGTTVTVSS VL: DIVMTQSPDSLAVSLGERATINCKSSQSLLNSRTRKNYLAWYQQKPGQPPKLLIYWASTRESGVPDRFSGSGSGTDFTLTISSLQAEDVAVYYCKQSFILRTFGGGTKLEIK | 9.24 | 0.0043 | 465000 |
| hAb007-26 (antibody, V domains shown, Humanized; constant regions not specified) VH: QVQLVQSGAEVKKPGASVKVSCKASGSTFTDNYIHWVRQAPGQRLEWIGWIYPGSVNIKYNEKFKDRATITADTSASTAYMELSSLRSEDTAVYYCARDISRYYFDYWGQGTTVTVSS VL: DIVMTQSPDSLAVSLGERATINCKSSQSLLNSRTRKNYLAWYQQKPGQPPKLLIYWASTRESGVPDRFTGSGSGTDFTLTISSLQAEDVAVYYCKQSFILRTFGGGTKLEIK | 12 | 0.00565 | 470000 |
| hAb007-27 (antibody, V domains shown, Humanized; constant regions not specified) VH: QVQLVQSGAEVKKPGASVKVSCKASGSTFTDNYIHWVRQAPGQRLEWIGWIYPGSVNIKYNEKFKDRATITADTSASTAYMELSSLRSEDTAVYYCARDISRYYFDYWGQGTTVTVSS VL: DIVMTQSPDSLAVSLGERATMNCKSSQSLLNSRTRKNYLAWYQQKPGQPPKLLIYWASTRESGVPDRFSGSGSGTDFTLTISSLQAEDVAVYYCKQSFILRTFGGGTKLEIK | 10 | 0.00427 | 427000 |
| hAb007-28 (antibody, V domains shown, Humanized; constant regions not specified) VH: QVQLVQSGAEVKKPGASVKVSCKASGSTFTDNYIHWVRQAPGQRLEWIGWIYPGSVNIKYNEKFKDRATITADTSASTAYMELSSLRSEDTAVYYCARDISRYYFDYWGQGTTVTVSS VL: DIVMTQSPDSLAVSLGERATMNCKSSQSLLNSRTRKNYLAWYQQKPGQPPKLLIYWASTRESGVPDRFTGSGSGTDFTLTISSLQAEDVAVYYCKQSFILRTFGGGTKLEIK | 11.8 | 0.00494 | 420000 |
| hAb007-29 (antibody, V domains shown, Humanized; constant regions not specified) VH: QVQLVQSGAEVKKPGASVKVSCKASGSTFTDNYIHWVKQAPGQRLEWIGWIYPGSVNIKYNEKFKDRATITADTSATTAYMELSSLRSEDTAVYYCARDISRYYFDYWGQGTTVTVSS VL: DIVMTQSPDSLAVSLGERATINCKSSQSLLNSRTRKNYLAWYQQKPGQPPKLLIYWASTRESGVPDRFSGSGSGTDFTLTISSLQAEDVAVYYCKQSFILRTFGGGTKLEIK | 9.85 | 0.00415 | 421000 |
